Assay results taken from the nanobody polyreactivity screen of Harvey et al. (2022).

Test: yeast display, Sf9 membrane polyspecificity reagent, FACS + sequencing; frameworks hold sequencing errors
Procedure, shortened: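 Nanobodies from a synthetic yeast display library (Saccharomyces cerevisiae BJ5465), induced 36–48 hours with galactose, were stained 1 hour at 4 °C with 10% biotinylated, detergent-solubilized Sf9 membrane reagent, enriched on streptavidin microbeads, then FACS-sorted. Anti-HA (expression) and streptavidin (reagent binding) fluorescence set low and high (top ~1%) gates. Polyreactivity labels come from the gate of origin. Genes were colony-PCR amplified, MiSeq 2 × 250 sequenced and filtered by CDR length.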

Sequence	polyreactivity (PSR sort gate)
QVQLVESGGGLVQAGGSLRLSCAASGFTIQPYTMGWYRQATGKERELVAAISKSGGSTYYADSVKGRFTISRDNAKNTVYLQMHSLKPEDTAVYYCAAVGWWGTSDYWGQGTQVTVSS	high polyreactivity
QVQLVESGGGLVQAGGSLRLSCAASGFTIRSYVMGWYRQAPGKEREFVAAISYRGGGTNYADSVKGRFTISRDNAKNTVYLQMNSLKPEDTAVYYCNARSGSSKSGYYNWGQGTQVTVSS	high polyreactivity
QVQLVESGGGLVQAGGSLRLSCAASGFTISAYAMGWYRQAPGKERELVAAITSGGGSTRYADSVKGRFTISRDNAKNTVYLQMNSLKPEDTAVYYCAARNHRYKFNYWGQGTQVTVSS	high polyreactivity
QVQLVESGGGLVQAGGSLRLSCAASGFTITDYAMGWYRQAPGKVRELVAAITWSGGSTYYADSVKGRFTLSRDNAKNTVYLQMNSLKPEDTAVYYCNKVTEGLKMDYWGQGTQVTVSS	low polyreactivity
QVQLVESGGGLVQAGGSLRLSCAASGFTIWSYAMGWYRQAPGKERELVAAINYRGTSTYYADSVKGRFTISRDNAKNTVYLQMHSLKPEDTAVYYCAARYYTWQRPTYDYWGQGTQVTVSS	high polyreactivity
QVQLVESGGGLVQAGGSLRLSCAASGFTIYKNAMAWYRQAPGKERELVAAISGRGGSTTYADSVKGRFTISRDNAKNTVYLQMNSLKPEDTAVYYCAARFTYSYPLFGSWGQGTQVTVSS	high polyreactivity
QVQLVESGGGLVQAGGSLRLSCAASGFTIYRYALGGYRPAPGKERELVAAISKSGVSTYYADSVKGRFTISRDNAKNTVYLLMNSLKPEDTAVYYCAVSLTYRWISFDYWGQGTQVTVSS	high polyreactivity
QVQLVESGGGLVQAGGSLRLSCAASGFTIYWYTMVWYRQAPGKERELVAAISRRGGRTYYADSVKGRFTISRDNAKNTVYLQMNSLKPEDTAVYYCAADGTSPVDMNYWGQGTQVTVSS	high polyreactivity
QVQLVESGGGLVQAGGSLRLSCAASGFTIYYYAMGWYRQAPGKERELVASISWSGGSTNYADSVKGRFTISRDNAKNTVYLQMNRLKPEDTAVYYCNTAGPYRRDYWGQGTQVTVSS	high polyreactivity
QVQLVESGGGLVQAGGSLRLSCAASGFTLADNTMGWYRQAPGKEMELVAAITSGASTYYADSVKGRFTISRDNAKNTVYLQMNSLKPEDTAVYYCAALYYWLSGYDYWGQGTQVTVSS	low polyreactivity
QVQLVESGGGLVQAGGSLRLSCAASGFTLAYYAMGWYRQAPGKERELVAAITADTGTTYYADSVKGRFTISRDNAKNTVYLQMNSLKPEDTAVYYCATRDVFYEDDYWGQGTQVTVSS	high polyreactivity
QVQLVESGGGLVQAGGSLRLSCAASGFTLAYYAMGWYRQAPGKERELVATISRRGGSTNYADSVKGRFTISRDNAKNTVYLQMNSLKPVDTAVYYCARTLYRGKSYHGHSKYDYWGQGTQVTVSS	high polyreactivity
QVQLVESGGGLVQAGGSLRLSCAASGFTLDDNGMGWYRQAPGKERELVASITWSGGSTYYADSVKGRFTISRDNAKNTVYLQMNSLKPEDTAVYYCNVGDPIGGFLSYWGGDYWGQGTQVTVSS	low polyreactivity
QVQLVESGGGLVQAGGSLRLSCAASGFTLDVNAMGLYRHAPGKERELVATISWGGASRYYADSVKGRFTISRDNAKNTVYLQMNRLKPEDTAVFYCAAQFYYPDDKGGYDYWGQGTQVTVSS	low polyreactivity
QVQLVESGGGLVQAGGSLRLSCAASGFTLDWYAKGWYRQAPGKERELVAAISSSGRTNYADSVKGRFTISRDNAKNTVYLQMNSLKPEDTAVYYCNRDYPYIWHKGARYWHENDYWGQGTQVTVTS	low polyreactivity
QVQLVESGGGLVQAGGSLRLSCAASGFTLDWYAMGWYRQAPGKERELVAAIWSAGTTYYADSVKGRFTISRDNAKNTVYLQMNSLKPEDTAVYYCATVSDYDFGLYDYWGQGTQVTVSS	low polyreactivity

Sequence	polyreactivity (PSR sort gate)
QVQLVESGGGLVQAGGSLRLSCAASGFTLEDYTMGWYRQAPGKERELVARITSGGSTNYADSVKGRFTISRDNAKNTVYLQMNSLKPEDTAVYYCNARYAWINMDYWGQGTQVTVSS	low polyreactivity
QVQLVESGGGLVQAGGSLRLSCAASGFTLEFSAMGWYRQAPGKERELVASISSGGRTNYADSVKGRFTISRDNAKNTVYLQMYSLKPVDTAVYYCAAEYRSWGRYRYRFNYWGQGTQVTVSS	high polyreactivity
QVQLVESGGGLVQAGGSLRLSCAASGFTLFGYAMGWYRQAPGKERELVAAITSGDGRTYYADSVKGRFTISRDNAKNTVYLQMNSLKPEDTAVYYCAATRYSSYYYVRHDHWGQGTQVTVSS	low polyreactivity
QVQLVESGGGLVQAGGSLRLSCAASGFTLGDNAMGWSRQAPGKERELVAAISGGGSSTYYADSVKGRFTISRDNAKNTVYLQMNSLKPEDTAVYYCAADYYFSTYYSRYYFWGQGTQVTVSS	low polyreactivity
QVQLVESGGGLVQAGGSLRLSCAASGFTLGFYAMGWYRQAPGKESELVAAINWRGGSTYYADSVKGRFTISRDNAKNTVYLQMNSLKPEDTAVYYCNARWARGRYAQYVGLDREYDYWGQGTQVTVSS	high polyreactivity
QVQLVESGGGLVQAGGSLRLSCAASGFTLGRYAMGWYRQAPGKEREFVAAISSSGTTTNYADSVKGRFTISRDNAKNTVYLQMNSLKPEDTAVYFCNAYTTKRRWIKYDYWGQGTQVTVSS	high polyreactivity
QVQLVESGGGLVQAGGSLRLSCAASGFTLGSNVMGWYRQAPGKERELVAGISQSGGRTFYADSVKGRFTISRDNAKNTVYLQMNSLKPEDTAVYYCNAYRYYSPYGYWGQGTQVTVSS	low polyreactivity
QVQLVESGGGLVQAGGSLRLSCAASGFTLKYYAMGWYRQAPGKERELVAAITQRGGSTYADSVKGRFTISRDNAKNTVYLQMNSLKPEDTAFYFCAASSAKYRLYGGYDYWGQGTQVTVSS	high polyreactivity
QVQLVESGGGLVQAGGSLRLSCAASGFTLLKYAMGWYIQAPGKERELVAAITRRGGRTSYADSVKGRFTISRDNAKNTVYLQMNSLKPEDTAVYYCNADGDTGRFDYWGQGTQVTVSS	high polyreactivity
QVQLVESGGGLVQAGGSLRLSCAASGFTLLTYVMGWYRQAPGKERELVAAISKSGSRTYYADSVKWRFTISRDNAKNTVYLQMNRLKPVDTPVYYCAADTSAYRYDYWGQGTQVTVSS	high polyreactivity
QVQLVESGGGLVQAGGSLRLSCAASGFTLLVNAMGWYRQAPGKERELVAAITSGGRTNYADSVKGRFTISRDNAKNTVYLQMNSLKPEDTAVYYCARDWGRKPDDGQQAWYEYWGQGTQVTVSS	low polyreactivity
QVQLVESGGGLVQAGGSLRLSCAASGFTLRLYVMGWYRQAPGKERELVAAITSSGGSTYYADSVKGRFTISRDNAKNTVYLQMNSLKPEDTAVYYCAAVNRKSQLYGYWGQGTQVTVSS	high polyreactivity
QVQLVESGGGLVQAGGSLRLSCAASGFTLRSNVMGWSRQAPGKERELVAGISQSGGRTFYADSVKGRFTISRDNAKNTVYLQMNSLKPEDTAVYYCAARRYAVEGSKNYYWGQGTQVTVSS	low polyreactivity
QVQLVESGGGLVQAGGSLRLSCAASGFTLRTYAMGWYRQAPGKERELVAAITVSGGTYYADSVKGRFTISRDNAKYTVYLQMNSLKPEDTAVYYCTAKRFGTGFDYWGQGTQVTVSS	low polyreactivity
QVQLVESGGGLVQAGGSLRLSCAASGFTLRYYAMGWSRQAPVKERELVATIKRSGASTYYADSVKGRFTISRDNSKNTVYLQMNSLKPEDTAVYYCNTATSRAYRYDYWGQGTQVTVSS	high polyreactivity
QVQLVESGGGLVQAGGSLRLSCAASGFTLSAYAMGLYRQAPGKERELVAGNSYTGGRTYYADSVKGRFTISRDNAKNTFYLQLISLKPEDTAVDYCAAALYSDVDAVATYGYYWGEGTQVTVSS	low polyreactivity
